Reference: patent US20090029376
Where a chain is given by its changes, count along the chain named.

Columns and labels:
Experiment in all cases: cleavage_in_vitro
[1] = target: T1, SalI (Streptomyces albus G) (UniProt Q53608); settings: NEB3, 37 C; Table 10 prints 4
T1 sequence: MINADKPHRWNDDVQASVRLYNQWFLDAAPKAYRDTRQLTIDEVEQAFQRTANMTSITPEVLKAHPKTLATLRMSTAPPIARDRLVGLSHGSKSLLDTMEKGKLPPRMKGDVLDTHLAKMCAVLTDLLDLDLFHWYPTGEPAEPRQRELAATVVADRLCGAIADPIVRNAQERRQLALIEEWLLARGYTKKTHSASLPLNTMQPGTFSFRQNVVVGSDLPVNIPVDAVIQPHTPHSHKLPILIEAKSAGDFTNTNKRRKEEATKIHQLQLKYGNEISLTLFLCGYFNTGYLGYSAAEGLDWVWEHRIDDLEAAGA

[2] = target: T2, SalI-HF R107A (Streptomyces albus G) (UniProt Q53608); settings: NEB4, 37 C
T2 sequence: T1 sequence with R107A

[3] = test system: T3, AvrII (Anabaena variabilis); settings: NEB4, 37 C
T3 sequence: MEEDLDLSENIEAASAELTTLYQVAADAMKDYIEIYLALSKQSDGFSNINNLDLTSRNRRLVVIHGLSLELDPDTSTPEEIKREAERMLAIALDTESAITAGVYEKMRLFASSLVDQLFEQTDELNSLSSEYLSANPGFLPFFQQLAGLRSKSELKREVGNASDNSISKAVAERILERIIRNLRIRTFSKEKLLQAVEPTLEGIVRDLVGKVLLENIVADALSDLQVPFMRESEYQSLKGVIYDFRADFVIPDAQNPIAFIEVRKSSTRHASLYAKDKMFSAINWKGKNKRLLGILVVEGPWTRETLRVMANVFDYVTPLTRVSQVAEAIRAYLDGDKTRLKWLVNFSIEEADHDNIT

[4] = test system: T4, AvrII-HF Y104F (Anabaena variabilis); settings: NEB4, 37 C
T4 sequence: T3 sequence with Y104F

[5] = target: T5, PvuII-HF T46G (Proteus vulgaris) (UniProt P23657); settings: NEB4, 37 C
T5 sequence: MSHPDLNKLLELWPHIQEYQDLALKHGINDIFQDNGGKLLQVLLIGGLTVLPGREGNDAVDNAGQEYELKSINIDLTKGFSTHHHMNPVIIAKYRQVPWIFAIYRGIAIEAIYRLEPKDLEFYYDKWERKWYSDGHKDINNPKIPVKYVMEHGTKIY

[6] = target: T6, BamHI(K30A/K52A) K30A/K52A (Bacillus amyloliquefaciens) (UniProt P23940); settings: NEB2, 37 C
T6 sequence: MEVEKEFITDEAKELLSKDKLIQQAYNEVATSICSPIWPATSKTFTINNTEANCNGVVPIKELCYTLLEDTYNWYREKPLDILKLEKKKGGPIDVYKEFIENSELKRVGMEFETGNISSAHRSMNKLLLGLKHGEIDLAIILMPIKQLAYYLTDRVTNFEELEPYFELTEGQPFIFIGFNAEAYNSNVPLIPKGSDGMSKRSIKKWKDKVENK

[7] = target: T7, BamHI(K30A/K88A) K30A/K88A (Bacillus amyloliquefaciens) (UniProt P23940); settings: NEB2, 37 C
T7 sequence: T6 sequence with A52K, K88A

[8] = test system: T8, BspQI-HF K279P/R388F (Bacillus sphaericus); settings: NEB4, 50 C
T8 sequence: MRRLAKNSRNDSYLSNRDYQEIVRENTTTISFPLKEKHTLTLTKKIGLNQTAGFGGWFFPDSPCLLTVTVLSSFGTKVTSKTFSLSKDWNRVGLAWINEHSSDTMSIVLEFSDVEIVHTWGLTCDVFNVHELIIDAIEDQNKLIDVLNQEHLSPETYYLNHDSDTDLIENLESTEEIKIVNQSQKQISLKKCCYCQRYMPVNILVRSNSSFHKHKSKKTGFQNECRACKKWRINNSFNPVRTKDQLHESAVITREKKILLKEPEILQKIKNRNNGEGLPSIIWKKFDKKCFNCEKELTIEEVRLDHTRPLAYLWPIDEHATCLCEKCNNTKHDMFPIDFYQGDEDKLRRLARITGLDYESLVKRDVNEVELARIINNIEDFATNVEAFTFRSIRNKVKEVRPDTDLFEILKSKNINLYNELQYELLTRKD

Substance HindIII-digested lambda DNA has an activity (fidelity index) [1] of 32 and an activity (fidelity index) [2] greater than 2000.

For T7 DNA, the activity (fidelity index) [3] was 32 and the activity (fidelity index) [4] was 1000.

Work on pBR322 yielded an activity (fidelity index) [5] of 500.

For pUC19, the relative cleavage activity (fraction of K30A activity) [6] was 0.1, the relative cleavage activity (fraction of K30A activity) [7] was 0.1 and the activity (fidelity index) [8] was greater than 4000.
